Measured values: US20200164083A1 (priority 2016, published 2020)
Like-named read-outs stand apart in the source and are kept apart here.

Legend:
[1] = rat, in vivo, sc
Protocol: Each syringe contained 0.45 or 0.98 μmol peptide at 1.9 μmol peptide g^−1 slurry. The syringes were weighed prior to and after dosing to verify the mass delivered to each rat. Blood samples (300 μL) were drawn and the serum was frozen at −80° C. until analysis.
Frozen serum samples were thawed on ice and diluted between 5 and 20-fold in the provided rat serum. […] Data replicates were averaged and fitted to appropriate pharmacokinetic models.

[2] = pH 9.4
[3] = system: Zucker diabetic fatty rats; experiment: Chronic glucoregulatory effects in diabetic ZDF rats; assay type: in vivo; conditions: single s.c. dose
Protocol: A total of 55 male Zucker diabetic fatty rats (ZDF-Lepr^fa/Crl) 6 weeks of age, and 180-200 gram (Charles River, USA) were single-housed and blood glucose and body weight were monitored bi-weekly for 2-4 weeks. Based on morning-fed blood glucose, outliers were excluded and 40 diabetic rats (average weight 340 g, blood glucose 9.7 to 22.5 mM, average 16.2 mM) were stratified into 4 groups of n=10. […]
Body-weights were monitored daily from day −3 throughout the study. Food and water intake were monitored on day −3 and daily for the first 11 days after the first dose then bi-weekly for the rest of the study period. Blood sampling was performed for pharmacokinetic studies 2 days after the first dose and then once weekly. HbA1c was measured day −3, and days 26 and 55 before OGTT, and the gastric emptying test was performed on day 26. For the OGTT, rats were semi-fasted overnight (60%) then PO glucose (2 g/kg in 10 mL) was administered at t=0. Blood glucose and insulin were measured at t=−60, −15, 0, 15, 30, 60 and 120 minutes after the glucose challenge. Gastric emptying was measured by administration of acetaminophen (100 mg/kg) with the OGTT on day 26, and blood levels were measured at 15, 30, 60 and 120 min.

[4] = mouse, in vivo
Protocol: B. The small amounts of microspheres needed in the mouse required a diluent to allow accurate dosing. […] This diluent served to keep the microspheres in a homogeneous suspension prior to and during administration and allowed dosing of convenient volumes. […] Syringes (0.5 mL U-100 insulin syringe with fixed 29 g×½″ needle, BD) were filled with the suspended microspheres under aseptic conditions. The needle assembly of each syringe was purged of air and weighed prior to and following dosing to determine the average mass of slurry delivered to each mouse.
Serum was prepared and frozen at −80° C. until analysis.
(§1) Serum samples were treated with 3 vol of ACN and centrifuged. The supernatant was dried, reconstituted and applied to a HPLC MS/MS system. The sample was eluted by a water/ACN gradient containing 0.1% formic acid. […] HPLC-MS/MS analyses were carried out on a Sciex 5500 QTrap® mass spectrometer coupled with a Shimadzu HPLC system. The Shimadzu HPLC system consisted of two LC-30AD HPLC pumps and a SIL-30AC autosampler with a 100-μL loop installed. […] The mass spectrometer was operated in positive electrospray ionization mode and the resolution setting used was the unit for both Q1 and Q3. […] Peak-area integrations were performed using Analyst software (version 1.5.2) from Sciex.
(§2) C vs. t curves (text) were analyzed using GraphPad Prism by non-linear regression of eq X (text) with weighting by 1/SD2; since ka>>k1 we modeled the single exponential phase of the terminal half-life using data points later than the first few days.

[5] = rat, in vivo
Protocol: The content of each syringe was administered SC in the flank of six cannulated male Sprague Dawley rats (average weight 270 g).
as §1, §2

**Q.** With “hydrogel-[N28Q]exenatide microspheres R^1=CN: PEG hydrogel microspheres coupled with Nα-[1-cyano-7-azido-2-heptyloxycarbonyl]-[N28Q]exenatide” as the substance, how does the t1/2 [1] read?
**A.** 31.7 days

**Q.** What about the “half-life of first-order release of free peptide” value [2] of the same substance?
**A.** 0.688 days

**Q.** And the “control of blood glucose” value [3]?
**A.** effective at controlling blood glucose for at least one month

**Q.** And the AUCinf [4]?
**A.** 800 ± 323 nM-hr

**Q.** And the Cmax [4]?
**A.** 0.81 nM

**Q.** And the “Dose adjusted: Cmax, 0” value [4]?
**A.** 0.18 nM/(μmol/kg)

**Q.** What about the “k × 10^4 ± SE” value [4] of the same substance?
**A.** 9.5 ± 1.0 h^−1

**Q.** What about the t1/2 [4] of the same substance?
**A.** 30.4 days

**Q.** And the AUCinf [5]?
**A.** 448 ± 91 nM-hr

**Q.** And the Cmax [5]?
**A.** 0.36 nM

**Q.** And the “Dose adjusted: Cmax, 0” value [5]?
**A.** 0.17 nM/(μmol/kg)

**Q.** And the “k × 10^4 ± SE” value [5]?
**A.** 7.8 ± 1.3 h^−1

**Q.** And the t1/2 [5]?
**A.** 36.8 days

**Q.** What about the “t1/2,β” value ([5]; sc) of the same substance?
**A.** 36.7 days
